In paper PMC9894219:
Where two headings read alike, the source gives them in different places.

How the values were obtained:
[1] = target: Nurr1258 (Nurr1 DBD-hinge-LBD) (UniProt P43354 258-598); assay: crystal structure
[2] = target: T1, Nurr1258 (in Nurr1258-RXRα98 heterodimer);RXRα98 (DBD-hinge-LBD) (human?;human?, UniProt P43354;P19793 258-598;98-462, |); assay: BLI
[3] = target: T1, Nurr1258 (in Nurr1258-RXRα98 …); assay: BLI; remark: listed apart in the source

T1 sequence (P43354 258-598, chain 1 of 2): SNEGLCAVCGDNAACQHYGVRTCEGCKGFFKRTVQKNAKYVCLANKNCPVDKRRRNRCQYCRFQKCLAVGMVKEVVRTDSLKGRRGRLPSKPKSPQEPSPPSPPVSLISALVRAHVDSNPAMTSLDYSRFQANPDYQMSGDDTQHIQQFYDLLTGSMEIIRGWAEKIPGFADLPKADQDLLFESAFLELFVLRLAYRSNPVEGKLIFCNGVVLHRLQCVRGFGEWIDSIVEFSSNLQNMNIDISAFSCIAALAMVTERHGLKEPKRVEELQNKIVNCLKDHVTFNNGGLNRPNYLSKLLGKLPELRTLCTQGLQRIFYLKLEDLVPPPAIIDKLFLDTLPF
T1 sequence (P19793 98-462, chain 2 of 2): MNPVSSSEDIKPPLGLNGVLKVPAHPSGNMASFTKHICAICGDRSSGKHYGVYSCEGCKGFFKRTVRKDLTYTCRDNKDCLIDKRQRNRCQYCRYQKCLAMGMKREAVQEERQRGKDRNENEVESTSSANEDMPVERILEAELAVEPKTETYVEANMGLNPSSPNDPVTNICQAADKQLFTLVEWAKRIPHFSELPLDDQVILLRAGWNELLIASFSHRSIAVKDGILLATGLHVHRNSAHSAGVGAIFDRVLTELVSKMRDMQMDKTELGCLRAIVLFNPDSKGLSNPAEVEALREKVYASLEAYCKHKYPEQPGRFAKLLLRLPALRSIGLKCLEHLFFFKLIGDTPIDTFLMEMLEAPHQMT
Chain of Nurr1258 (Nurr1 DBD-hinge-LBD) (P43354 258-598): as the sequence (P43354 258-598, chain 1 of 2) above

B1: NBRE (dsDNA)
DNA 1: CCGAAAAGGTCATGCG
DNA 2: CGCATGACCTTTTCGG
B1: binds [1].

B2: IR5 biotinylated (dsDNA)
DNA 1: AAAGGTCAAACTGTGACCTAT
DNA 2: ATAGGTCACAGTTTGACCTTT
Binder B2 has a Kd [2] of 62.5 nM and a Kd [3] of 864 nM.
